# Results: paper PMC3266953 (Scientific Reports, 2012)
# B1: NcdG347D, truncated dimeric protein (MGSM-H293-K700) (domain or fragment)
# chain: MGSMHAALSTEVVHLRQRTEELLRCNEQQAAELETCKEQLFQSNMERKELHNTVMDLRDNIRVFCRIRPPLESEENRMCCTWTYHDESTVELQSIDAQAKSKMGQQIFSFDQVFHPLSSQSDIFEMVSPLIQSALDGYNICIFAYGQTGSGKTYTMDGVPESVGVIPRTVDLLFDSIRGYRNLGWEYEIKATFLEIYNEVLYDLLSNEQKDMEIRMAKNNKNDIYVSNITEETVLDPNHLRHLMHTAKMNRATASTAGNERSSRSHAVTKLELIGRHAEKQEISVGSINLVDLAGSESPKTSTRMTETKNINRSLSELTNVILALLQKQDHIPYRNSKLTHLLMPSLGGNSKTLMFINVSPFQDCFQESVKSLRFAASVNSCKMTKAKRNRYLNNSVANSSTQSNNSGSFDK
# Molecular target: the molecule itself
# Assay: crystal structure
protein,measurement,value
B1,stoichiometry N,2
